Assay results: publication PMC13397619

B1: NLV3 TCR beta chain (CDR3β only) (parent)
chain: ASSPTGGSPSPLH
partner: NLCPMVATV

Variants of: B1
Assay: T-Switch: Jurkat TCRβ−/− cells expressing a CDR3 saturation-mutagenesis library, stained with two peptide-HLA-A*02:01 tetramers (original and novel peptide) plus anti-CD3, FACS-sorted into four gates, gDNA sequenced
Conditions: with HLA-A*02:01 with peptide … (NLV 2-1, the novel peptide), tetramers 1 µg/mL, 30 min on ice, SP, DP and SW gates expanded about 10 days between rounds ('two to three rounds of selection' in the Methods), gate SW: higher = more of the variant in the gate that binds the novel peptide and not the original one = switched binding. Fold enrichment of the CDR3 variant in one FACS gate of a two-tetramer stain, unresolved parent, parent is a CDR3 fragment, scale: fold enrichment, numbering: sequential-on-construct, sequence starts at 1

Variant | enrichment
[…] (CDR3 as printed); S10D derived by comparing it with the table's wild-type CDR3 ASSPTGGSPSPLH | 0
[…] (CDR3 as printed); S8H derived by comparing it with the table's wild-type CDR3 ASSPTGGSPSPLH | 0
[…] (CDR3 as printed); S10R derived by comparing it with the table's wild-type CDR3 ASSPTGGSPSPLH | 0
[…] (CDR3 as printed); T5Y derived by comparing it with the table's wild-type CDR3 ASSPTGGSPSPLH | 0
[…] (CDR3 as printed); T5R derived by comparing it with the table's wild-type CDR3 ASSPTGGSPSPLH | 0
[…] (CDR3 as printed); S8Y derived by comparing it with the table's wild-type CDR3 ASSPTGGSPSPLH | 0
[…] (CDR3 as printed); S10W derived by comparing it with the table's wild-type CDR3 ASSPTGGSPSPLH | 0
[…] (CDR3 as printed); T5E derived by comparing it with the table's wild-type CDR3 ASSPTGGSPSPLH | 0
[…] (CDR3 as printed); S2R derived by comparing it with the table's wild-type CDR3 ASSPTGGSPSPLH | 0
[…] (CDR3 as printed); S8N derived by comparing it with the table's wild-type CDR3 ASSPTGGSPSPLH | 0
[…] (CDR3 as printed); S3C derived by comparing it with the table's wild-type CDR3 ASSPTGGSPSPLH | 0
[…] (CDR3 as printed); T5N derived by comparing it with the table's wild-type CDR3 ASSPTGGSPSPLH | 0
[…] (CDR3 as printed); S3W derived by comparing it with the table's wild-type CDR3 ASSPTGGSPSPLH | 0
[…] (CDR3 as printed); T5K derived by comparing it with the table's wild-type CDR3 ASSPTGGSPSPLH | 0
[…] (CDR3 as printed); T5L derived by comparing it with the table's wild-type CDR3 ASSPTGGSPSPLH | 0
[…] (CDR3 as printed); T5W derived by comparing it with the table's wild-type CDR3 ASSPTGGSPSPLH | 0
[…] (CDR3 as printed); T5F derived by comparing it with the table's wild-type CDR3 ASSPTGGSPSPLH | 0
[…] (CDR3 as printed); S3G derived by comparing it with the table's wild-type CDR3 ASSPTGGSPSPLH | 0
[…] (CDR3 as printed); T5A derived by comparing it with the table's wild-type CDR3 ASSPTGGSPSPLH | 0
[…] (CDR3 as printed); S8D derived by comparing it with the table's wild-type CDR3 ASSPTGGSPSPLH | 0
[…] (CDR3 as printed); S10Q derived by comparing it with the table's wild-type CDR3 ASSPTGGSPSPLH | 0

Variant | enrichment
[…] (CDR3 as printed); T5P derived by comparing it with the table's wild-type CDR3 ASSPTGGSPSPLH | 0
[…] (CDR3 as printed); S10A derived by comparing it with the table's wild-type CDR3 ASSPTGGSPSPLH | 0
[…] (CDR3 as printed); S2P derived by comparing it with the table's wild-type CDR3 ASSPTGGSPSPLH | 0
[…] (CDR3 as printed); S3H derived by comparing it with the table's wild-type CDR3 ASSPTGGSPSPLH | 0
[…] (CDR3 as printed); S10E derived by comparing it with the table's wild-type CDR3 ASSPTGGSPSPLH | 0
[…] (CDR3 as printed); S10M derived by comparing it with the table's wild-type CDR3 ASSPTGGSPSPLH | 0
[…] (CDR3 as printed); S3Y derived by comparing it with the table's wild-type CDR3 ASSPTGGSPSPLH | 0
[…] (CDR3 as printed); S10V derived by comparing it with the table's wild-type CDR3 ASSPTGGSPSPLH | 0
[…] (CDR3 as printed); S2N derived by comparing it with the table's wild-type CDR3 ASSPTGGSPSPLH | 0
[…] (CDR3 as printed); S2M derived by comparing it with the table's wild-type CDR3 ASSPTGGSPSPLH | 0
[…] (CDR3 as printed); S8G derived by comparing it with the table's wild-type CDR3 ASSPTGGSPSPLH | 0
[…] (CDR3 as printed); S3V derived by comparing it with the table's wild-type CDR3 ASSPTGGSPSPLH | 0
[…] (CDR3 as printed); T5H derived by comparing it with the table's wild-type CDR3 ASSPTGGSPSPLH | 0
[…] (CDR3 as printed); S3T derived by comparing it with the table's wild-type CDR3 ASSPTGGSPSPLH | 0
[…] (CDR3 as printed); S8V derived by comparing it with the table's wild-type CDR3 ASSPTGGSPSPLH | 0
[…] (CDR3 as printed); S3A derived by comparing it with the table's wild-type CDR3 ASSPTGGSPSPLH | 0
[…] (CDR3 as printed); S10I derived by comparing it with the table's wild-type CDR3 ASSPTGGSPSPLH | 0
[…] (CDR3 as printed); S10G derived by comparing it with the table's wild-type CDR3 ASSPTGGSPSPLH | 0
[…] (CDR3 as printed); S8L derived by comparing it with the table's wild-type CDR3 ASSPTGGSPSPLH | 0
[…] (CDR3 as printed); T5D derived by comparing it with the table's wild-type CDR3 ASSPTGGSPSPLH | 0
[…] (CDR3 as printed); S10T derived by comparing it with the table's wild-type CDR3 ASSPTGGSPSPLH | 0

Variant | enrichment
[…] (CDR3 as printed); T5S derived by comparing it with the table's wild-type CDR3 ASSPTGGSPSPLH | 0
[…] (CDR3 as printed); S2Q derived by comparing it with the table's wild-type CDR3 ASSPTGGSPSPLH | 0
[…] (CDR3 as printed); S3R derived by comparing it with the table's wild-type CDR3 ASSPTGGSPSPLH | 0
[…] (CDR3 as printed); S3D derived by comparing it with the table's wild-type CDR3 ASSPTGGSPSPLH | 0
[…] (CDR3 as printed); T5G derived by comparing it with the table's wild-type CDR3 ASSPTGGSPSPLH | 0
[…] (CDR3 as printed); S3E derived by comparing it with the table's wild-type CDR3 ASSPTGGSPSPLH | 0
[…] (CDR3 as printed); S8P derived by comparing it with the table's wild-type CDR3 ASSPTGGSPSPLH | 0
[…] (CDR3 as printed); S3I derived by comparing it with the table's wild-type CDR3 ASSPTGGSPSPLH | 0
[…] (CDR3 as printed); S8R derived by comparing it with the table's wild-type CDR3 ASSPTGGSPSPLH | 0
[…] (CDR3 as printed); S10P derived by comparing it with the table's wild-type CDR3 ASSPTGGSPSPLH | 0
[…] (CDR3 as printed); T5I derived by comparing it with the table's wild-type CDR3 ASSPTGGSPSPLH | 0
[…] (CDR3 as printed); S3L derived by comparing it with the table's wild-type CDR3 ASSPTGGSPSPLH | 0
[…] (CDR3 as printed); S8C derived by comparing it with the table's wild-type CDR3 ASSPTGGSPSPLH | 0
[…] (CDR3 as printed); S3N derived by comparing it with the table's wild-type CDR3 ASSPTGGSPSPLH | 0
[…] (CDR3 as printed); S2Y derived by comparing it with the table's wild-type CDR3 ASSPTGGSPSPLH | 0
[…] (CDR3 as printed); S10L derived by comparing it with the table's wild-type CDR3 ASSPTGGSPSPLH | 0
[…] (CDR3 as printed); T5V derived by comparing it with the table's wild-type CDR3 ASSPTGGSPSPLH | 0
[…] (CDR3 as printed); S8T derived by comparing it with the table's wild-type CDR3 ASSPTGGSPSPLH | 0
[…] (CDR3 as printed); S10F derived by comparing it with the table's wild-type CDR3 ASSPTGGSPSPLH | 0
[…] (CDR3 as printed); S2V derived by comparing it with the table's wild-type CDR3 ASSPTGGSPSPLH | 0
[…] (CDR3 as printed); S10K derived by comparing it with the table's wild-type CDR3 ASSPTGGSPSPLH | 0

Variant | enrichment
[…] (CDR3 as printed); S8F derived by comparing it with the table's wild-type CDR3 ASSPTGGSPSPLH | 0
[…] (CDR3 as printed); S8A derived by comparing it with the table's wild-type CDR3 ASSPTGGSPSPLH | 0
[…] (CDR3 as printed); S10C derived by comparing it with the table's wild-type CDR3 ASSPTGGSPSPLH | 0
[…] (CDR3 as printed); S8Q derived by comparing it with the table's wild-type CDR3 ASSPTGGSPSPLH | 0
[…] (CDR3 as printed); S10H derived by comparing it with the table's wild-type CDR3 ASSPTGGSPSPLH | 0
[…] (CDR3 as printed); S3F derived by comparing it with the table's wild-type CDR3 ASSPTGGSPSPLH | 0
[…] (CDR3 as printed); S8W derived by comparing it with the table's wild-type CDR3 ASSPTGGSPSPLH | 0
[…] (CDR3 as printed); S3K derived by comparing it with the table's wild-type CDR3 ASSPTGGSPSPLH | 0
[…] (CDR3 as printed); S3M derived by comparing it with the table's wild-type CDR3 ASSPTGGSPSPLH | 0
[…] (CDR3 as printed); S3Q derived by comparing it with the table's wild-type CDR3 ASSPTGGSPSPLH | 0
[…] (CDR3 as printed); T5M derived by comparing it with the table's wild-type CDR3 ASSPTGGSPSPLH | 0
[…] (CDR3 as printed); S2T derived by comparing it with the table's wild-type CDR3 ASSPTGGSPSPLH | 0
[…] (CDR3 as printed); S8K derived by comparing it with the table's wild-type CDR3 ASSPTGGSPSPLH | 0
[…] (CDR3 as printed); S8M derived by comparing it with the table's wild-type CDR3 ASSPTGGSPSPLH | 0
[…] (CDR3 as printed); S3P derived by comparing it with the table's wild-type CDR3 ASSPTGGSPSPLH | 0
[…] (CDR3 as printed); S10N derived by comparing it with the table's wild-type CDR3 ASSPTGGSPSPLH | 0
[…] (CDR3 as printed); T5Q derived by comparing it with the table's wild-type CDR3 ASSPTGGSPSPLH | 0
[…] (CDR3 as printed); T5C derived by comparing it with the table's wild-type CDR3 ASSPTGGSPSPLH | 0
[…] (CDR3 as printed); S8E derived by comparing it with the table's wild-type CDR3 ASSPTGGSPSPLH | 0

Same assay, conditions: with HLA-A*02:01 with peptide … (NLV 2-1, the novel peptide), tetramers 1 µg/mL, 30 min on ice, SP, DP and SW gates expanded about 10 days between rounds ('two to three rounds of selection' in the Methods), gate SW: higher = more of the variant in the gate that binds the novel peptide and not the original one = switched binding. Fold enrichment of the CDR3 variant in one FACS gate of a two-tetramer stain, unresolved parent, parent is a CDR3 fragment, zero in all gates, scale: fold enrichment, numbering: sequential-on-construct, …

Variant | enrichment
[…] (CDR3 as printed); S2L derived by comparing it with the table's wild-type CDR3 ASSPTGGSPSPLH | 0
[…] (CDR3 as printed); G7P derived by comparing it with the table's wild-type CDR3 ASSPTGGSPSPLH | 0
